The values below come from PMC2376138 (2002).

Assay [1] concerns the target T1, SC142-reactive antigen (human (endogenous in SNU16), highly glycosylated (O-glycans)). Description: SPR; apparent; immobilised mAb, 1:1 Langmuir global fit. A general note: SPR reads the build-up and loss of mass on a sensor chip optically.
In assay [2] the target is T1, SC142-reactive antigen. Description: SPR; apparent; immobilised scFv, 1:1 Langmuir global fit.

B1: SC142 monoclonal antibody (antibody, V domains shown)
VH: QVKLQQSGTEVVKPGASVKLSCKASGYIFTSYDIDWVRQTPEQGLEWIGWIFPGEGSTEYNEKFKGRATLSVDKSSSTAYMELTRLTSEDSAVYFCARGDYYRRYFDLWGQGTTVTVSS
VL: DIELTQSPTIMSASPGERVTMTCSASSSIRYIYWYQQKPGSSPRLLIYDTSNVAPGVPFRFSGSGSGTSYSLTINRMEAEDAATYYCLEWSGYPYTFGGGTKLELK
For the molecule B1, the koff with SC142-reactive antigen [1] was determined as 0.000825 s⁻¹.

B2: recombinant SC142 scFv (scFv, V domains shown)
VH: QVKLQQSGTEVVKPGASVKLSCKASGYIFTSYDIDWVRQTPEQGLEWIGWIFPGEGSTEYNEKFKGRATLSVDKSSSTAYMELTRLTSEDSAVYFCARGDYYRRYFDLWGQGTTVTVSS
VL: DIELTQSPTIMSASPGERVTMTCSASSSIRYIYWYQQKPGSSPRLLIYDTSNVAPGVPFRFSGSGSGTSYSLTINRMEAEDAATYYCLEWSGYPYTFGGGTKLELK
As to B2, in the assay with SC142-reactive antigen [2], the koff amounted to 0.000776 s⁻¹.

The koff is a measure of how fast the partners let go of each other.
